One may read the Km as the substrate concentration at which the rate is half of its maximum.

Consider one protein from patent US5091312A.

Substrate in the data set: CNCC(=O)O
The data set is described as follows: purified protein, by the assay type. The conditions noted are these: other: 37° C., pH 8.0.

B1: sarcosine oxidase (E.C.1.5.3.1) from Streptomyces sp. KB210-8SY (Streptomyces sp. KB210-8SY) (protein)
chain: SPTYDVIVIGLGGMGSAAAHHLSARGARVLGLEKFGPVHNRGSSHGGSRITRQSYFEDPAYVPLLLRAYELYEELERATGRNVATLCGGVMAGPPDSRTVSGSLRSATEWDLAHEMLDAKEIRRRFPTLAPDDDEVALFEAKAGLLRPENMVAAHLQLATRQGAELRFEEPVLRWEPYRDGVRVHTGENTYTAGQLVICPGAWAPQLLADIGVPITVERQIMYWFQPKGGTGPFVPERHPVYIWEDADGVQVYGFPAIDGPEKGAKVAFFRKGQHTTPETIDRTVHAHEVRAMADHMSALIPDLPGTFLKAATCMYSNTPDEHFVIARHPAHPESVTVACGFSGHGFKFVPVVGEILADLALTGATAHPIGLFDPARLTAPAARGVQP
For B1, the Michaelis-Menten constant (Km) stood at 910 µM.
